# Article PMC10589136, “Prenylation of dimeric cyclo-L-Trp-L-Trp by the promiscuous cyclo-L-Trp-L-Ala prenyltransferase EchPT1” (Applied Microbiology and Biotechnology, 2023)
# What was measured:
# Test in all cases: purified protein
# purified protein [1] = substrate: CC(C)=CCOP(=O)(O)OP(=O)(O)O; conditions: 1 mM tetratryptomycin A (3) as prenyl acceptor, 5 mM CaCl2, Tris-HCl pH 7.5, 37 °C, 30 min, formation of 3a2
# purified protein [2] = substrate: O=C1N[C@@H](Cc2c[nH]c3ccccc23)C(=O)N2C3Nc4ccccc4C3(C34C[C@H]5C(=O)N[C@@H](Cc6c[nH]c7ccccc67)C(=O)N5C3Nc3ccccc34)C[C@@H]12; conditions: 1 mM DMAPP, 5 mM CaCl2, Tris-HCl pH 7.5, 37 °C
# purified protein [3] = substrate: O=C1N[C@@H](Cc2cn(C34C[C@H]5C(=O)N[C@@H](Cc6c[nH]c7ccccc67)C(=O)N5C3Nc3ccccc34)c3ccccc23)C(=O)N[C@H]1Cc1c[nH]c2ccccc12; conditions: 1 mM DMAPP, 5 mM CaCl2, Tris-HCl pH 7.5, 37 °C, 30 min, formation of monoprenylated 4a1
# [4] = 20 min, formation of diprenylated 5a2
# [5] = 30 min, formation of diprenylated 3a2
protein,measurement,setting,value
EchPT1 (Aspergillus ruber) (protein) MPSEVLTSYYDYPTHDQEAWWRDTGPLFGRFLKGAGYDVHTQYQYLVFFIKNILPSLGPYPARWRSTITPTGLPIEYSLNFQLNSRPLLRIGFEPLSRFSGTPQDPYNKIAAADLLNQLSKLQLHEFDTQLFNHFTNEFELSKSESESLQKQGGINGKSTVRSQTAFGFDLKGGRVAVKGYAFAGLKNRATGTPVGQLISNSIRNLEPQMHCWDSFSILNSYMEESDGWNEYSFVSWDCVDIERSRLKLYGVHNAVTWDKVKEMWTLGGRIENNATIKTGLELLQHMWSLLQINEGDRDYKGGFAADNGGKTLPIIWNYELNKGSPHPAPKFYFPVHGENDLQVSKSISEFFTHLGWQDHARQYPHLLRQIYPNQNISQTERLQAWISFAYNERTGPYLSVYYYSAERPPWGSDQVK,Km,purified protein [1],50 ± 7 µM
same,kcat,purified protein [1],0.03 ± 0.002 s⁻¹
same,kcat/Km,purified protein [1],600 M⁻¹ s⁻¹
same,Km,purified protein [2]; [4],50 ± 5 µM
same,kcat,purified protein [2]; [4],0.03 ± 0.001 s⁻¹
same,kcat/Km,purified protein [2]; [4],600 M⁻¹ s⁻¹
same,Km,purified protein [2]; [5],60 ± 7 µM
same,kcat,purified protein [2]; [5],0.05 ± 0.0003 s⁻¹
same,kcat/Km,purified protein [2]; [5],833 M⁻¹ s⁻¹
same,Km,purified protein [3],250 ± 30 µM
same,kcat,purified protein [3],0.14 ± 0.01 s⁻¹
same,kcat/Km,purified protein [3],560 M⁻¹ s⁻¹
